Experimental data published in patent publication US6617497B1, “Cytokinin oxidase” (The Curators of the University of Missouri, priority 1997, dated 2003).

Biological target: T1, cytokinin oxidase activity (Zea mays, UniProt Q9T0N8)
T1 construct: The exon fusion (containing ckx1 and including its putative signal peptide) was ligated into the Pml1/BsmB1 restriction sites of pPICZ-A; made in house; host or cells: Pichia pastoris X33 (transformant PPckx1, plasmid pROM24); activity measured in the culture supernatant
Experiment: Cytokinin oxidase activity of ckx1 expressed in Pichia pastoris
Type: biochemical
Text: Two assays were used to screen purification steps for cytokinin oxidase activity. The first was the Schiff base formation assay measuring the production of dimethylallylaldehyde from iP, as described by Liberos-Minotta (1995), which was used up through the DEAE column step. A second assay, developed by the applicant, was used in the remaining purification steps. In this assay, the transfer of reducing equivalents from isopentenyladenine to dichlorophenolindophenol (DCPIP), catalyzed by ckx1, allows the observance of reactivity by measuring absorbance change at 590 nm. In a final volume of 250 μl, the assay contains: 100 mM Phosphate buffer, pH 7.0; 1.0 mM EDTA; 0.05 mM DCPIP; 0.1 mM iP; 100 μg/ml BSA; and the sample tested. After the addition of the enzyme, absorbance change is read at 590 nm for 10 minutes.
Removal of the right-most intron was accomplished by splicing by overlap extension (Horton et al., 1989) and for the left-most intron by ligation of suitable restriction fragments. The resulting intronless cassette was inserted into the Pichia expression vector pPICZ-A to give the expression construct pROM24 (FIG. 9). This construct was introduced into the requisite Pichia host and grown in the presence of methanol to induce ckx1 expression. Appropriate control Pichia lines (containing. the vector alone or a recombinant expressing human serum albumin) were grown in parallel. […]

T1 sequence (Q9T0N8 19-534): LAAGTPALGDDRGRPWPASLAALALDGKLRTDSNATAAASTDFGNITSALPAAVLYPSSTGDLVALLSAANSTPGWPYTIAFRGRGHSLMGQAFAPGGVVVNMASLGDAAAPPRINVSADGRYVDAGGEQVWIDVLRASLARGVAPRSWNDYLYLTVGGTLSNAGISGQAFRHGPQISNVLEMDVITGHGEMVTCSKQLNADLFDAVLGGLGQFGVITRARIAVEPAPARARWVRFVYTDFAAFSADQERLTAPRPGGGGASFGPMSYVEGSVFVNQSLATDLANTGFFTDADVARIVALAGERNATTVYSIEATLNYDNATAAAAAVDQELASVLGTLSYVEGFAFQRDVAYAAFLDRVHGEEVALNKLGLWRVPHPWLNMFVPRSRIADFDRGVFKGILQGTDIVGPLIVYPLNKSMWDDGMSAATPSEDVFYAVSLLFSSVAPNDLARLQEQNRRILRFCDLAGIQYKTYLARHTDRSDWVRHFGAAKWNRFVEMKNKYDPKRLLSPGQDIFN

B1: ckx1: purified plant cytokinin oxidizing enzyme from Zea mays (SEQ. ID NO. 1); here expressed recombinantly in Pichia pastoris (protein)
chain: MAVVYYLLLAGLIACSHALAAGTPALGDDRGRPWPASLAALALDGKLRTDSNATAAASTDFGNITSALPAAVLYPSSTGDLVALLSAANSTPGWPYTIAFRGRGHSLMGQAFAPGGVVVNMASLGDAAAPPGINVSADGRYVDAGGEQVWIDVLRASLARGVAPRSWNDYLYLTVGGTLSNAGISGQAFRHGPQISNVLEMDVITGHGEMVTCSKQLNADLFDAVLGGLGQFGVITRARIAVEPAPARARWVRFVYTDFAAFSADQERLTAPRPGGGGASFGPMSYVEGSVFVNQSLATDLANTGFFTDADVARIVALAGERNATTVYSIEATLNYDNATAAAAAVDQELASVLGTLSYVEGFAFQRDVAYAAFLDRVHGEEVALNKLGLWRVPHPWLNMFVPRSRIADFDRGVFKGILQGTDIVGPLIVYPLNKSMWDDGMSAATPSEDVFYAVSLLFSSVAPNDLARLQEQNRRILRFCDLAGIQYKTYLARHTDRSDWVRHFGAAKWNRFVEMKNKYDPKRLLSPGQDIFN
modifications: Zea mays
notes: here expressed recombinantly in Pichia pastoris
cytokinin oxidase activity in cell lysates (Pichia cell lysates, at any time during the growth curve): No cytokinin oxidase activity
cytokinin oxidase activity in growth medium (Pichia culture supernatant, methanol induction): high levels of cytokinin oxidase activity
